This is an account of results in paper PMC7851489.

Usually Kd stands for the constant that tells how readily two partners part at equilibrium. High values mean weaker binding, low ones tighter binding.

For the experiment, the target named is soluble extracellular domain of poliovirus receptor (sPVR). Put plainly: BLI.

“mouse TIGIT protein (from UniProt P86176 29-148) (receptor)” yielded an equilibrium dissociation constant (Kd) of 0.033 µM.

B1: mouse CD226 protein (receptor)
chain: EETLWDTTVRLSETMTLECVYPLTHNLTQVEWTKNTGTKTVSIAVYNPNHNMHIESNYLHRVHFLNSTVGFRNMSLSFYNASEADIGIYSCLFHAFPNGPWEKKIKVVWSDSFEIAAPSDSYLSAEPGQDVTLTCQLPRTWPVQQVIWEKVQPHQVDILASCNLSQETRYTSKYLRQTRSNCSQGSMKSILIIPNAMAADSGLYRCRSEAITGKNKSFVIRLIITDGGTNKHFILP
Regarding B1, the equilibrium dissociation constant (Kd) was 6.13 µM.
